Source: publication PMC3416812

Tests used:
[1] = target: tubulin purified from porcine brain, polymerised without fixation (MTs, zinc-sheets or zinc-macrotubes) (porcine (purified from porcine brain)) (UniProt P02550)
[2] = target: tubulin polymers from porcine brain tubulin fixed with glutaraldehyde (MTs (GA) or zinc-sheets (GA)) (porcine (purified from porcine brain)) (UniProt P02550)
[3] = target: tubulin polymers from porcine brain tubulin fixed with glutaraldehyde (MTs (GA) or zinc-sheets (GA)) (porcine (purified from porcine brain)) (UniProt P02550); remark: listed apart in the source

| velocity of single-molecule movement on MTs (TIRF, from MSD plots; pH 6.8, 25 mM potassium acetate, 1 mM ATP) [1] [nm/s] | velocity of single-molecule movement on MTs (GA) (TIRF, from MSD plots; pH 6.8, 25 mM potassium acetate, 1 mM ATP) [2] [nm/s] | velocity of single-molecule movement on zinc-sheets (GA) (TIRF, from MSD plots; pH 6.8, 25 mM potassium acetate, 1 mM ATP) [2] [nm/s] | observed walking length on zinc-sheets (GA) (TIRF) [3] [nm] | Substance |
| --- | --- | --- | --- | --- |
| 36 | 35 | 35 | 500 | recombinant yeast dynein dimer GFP-GST-Dyn1_(331kDa) (domain or fragment) |
|  |  |  | 500 | rat kinesin dimer (RK430) fused with GFP (domain or fragment) |
